Experimental findings from patent US20150098924A1 (TOPOTARGET SWITZERLAND, published 2015) are described below.

The test concerns the target T1, Fas receptor (human, UniProt P25445 26-335).
T1 sequence (looked up): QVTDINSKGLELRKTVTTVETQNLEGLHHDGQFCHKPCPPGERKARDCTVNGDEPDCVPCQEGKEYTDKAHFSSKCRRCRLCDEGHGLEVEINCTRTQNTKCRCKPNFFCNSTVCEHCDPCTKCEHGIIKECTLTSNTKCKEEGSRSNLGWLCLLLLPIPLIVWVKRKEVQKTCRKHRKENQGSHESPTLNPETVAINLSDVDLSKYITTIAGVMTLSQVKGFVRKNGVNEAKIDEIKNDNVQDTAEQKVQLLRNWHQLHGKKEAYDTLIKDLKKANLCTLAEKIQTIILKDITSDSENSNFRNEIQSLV
In words: cell-based or functional assay.

Turning to CH11 (antibody), the IC50 (ng/ml), PESMTS survival assay, ARH-77 cells was greater than 10000 ng/mL; the IC50 (ng/ml), PESMTS survival assay, DOHH2 cells was greater than 10000 ng/mL; the IC50 (ng/ml), PESMTS survival assay, HL60 (AML-M3) cells is greater than 10000 ng/mL; the IC50 (ng/ml), PESMTS survival assay, Jurkat cells came to 6.58 ng/mL. The IC50 (ng/ml), PESMTS survival assay, K562 cells was greater than 10000 ng/mL; the IC50 (ng/ml), PESMTS survival assay, NB4 (AML-M3) cells is greater than 10000 ng/mL; the IC50 (ng/ml), PESMTS survival assay, Namalwa (ALL-L3) cells is greater than 10000 ng/mL; the IC50 (ng/ml), PESMTS survival assay, RPMI-8226 cells is greater than 10000 ng/mL. Moreover, the IC50 (ng/ml), PESMTS survival assay, Raji (ALL-L3) cells stood at 15.8 ng/mL; the IC50 (ng/ml), PESMTS survival assay, SC-1 cells is greater than 10000 ng/mL; the IC50 (ng/ml), PESMTS survival assay, U266 cells was greater than 10000 ng/mL.

B1: MegaFasL (fusion polypeptide m or hACRP30:hFasL) (ligand)
chain: QLFHLQKELAELRESTSQMHTASSLEKQIGHPSPPPEKKELRKVAHLTGKSNSRSMPLEWEDTYGIVLLSGVKYKKGGLVINETGLYFVYSKVYFRGQSCNNLPLSHKVYMRNSKYPQDLVMMEGKMMSYCTTGQMWARSSYLGAVFNLTSADHLYVNVSELSLVNFEESQTFFGLYKL
As for B1, the “IC50 (ng/ml), PESMTS survival assay, ARH-77 cells” value is 10.4 ng/mL; the “IC50 (ng/ml), PESMTS survival assay, DOHH2 cells” value stood at 1.17 ng/mL; the “IC50 (ng/ml), PESMTS survival assay, HL60 (AML-M3) cells” value was 213 ng/mL; the “IC50 (ng/ml), PESMTS survival assay, Jurkat cells” value was found to be 0.06 ng/mL. For the same molecule, the “IC50 (ng/ml), PESMTS survival assay, K562 cells” value is greater than 10000 ng/mL; the “IC50 (ng/ml), PESMTS survival assay, NB4 (AML-M3) cells” value came out at 16 ng/mL; the “IC50 (ng/ml), PESMTS survival assay, Namalwa (ALL-L3) cells” value was 57 ng/mL; the “IC50 (ng/ml), PESMTS survival assay, OPM2 cells” value came out at 2.19 ng/mL. Moreover, the “IC50 (ng/ml), PESMTS survival assay, RPMI-8226 cells” value is 3.57 ng/mL; the “IC50 (ng/ml), PESMTS survival assay, Raji (ALL-L3) cells” value was 5.6 ng/mL; the “IC50 (ng/ml), PESMTS survival assay, SC-1 cells” value is greater than 10000 ng/mL; the “IC50 (ng/ml), PESMTS survival assay, U266 cells” value was found to be 6.2 ng/mL.
